B1: GST-fused P5 (GLYYF) [human] / Flag-fused N-terminal-truncated AdipoR1 (residues 89-375) [human] (parent complex)
chain 1: GLYYF
chain 2: EGRWRVIPYDVLPDWLKDNDYLLHGHRPPMPSFRACFKSIFRIHTETGNIWTHLLGFVLFLFLGILTMLRPNMYFMAPLQEKVVFGMFFLGAVLCLSFSWLFHTVYCHSEKVSRTFSKLDYSGIALLIMGSFVPWLYYSFYCSPQPRLIYLSIVCVLGISAIIVAQWDRFATPKHRQTRAGVFLGLGLSGVVPTMHFTIAEGFVKATTVGQMGWFFLMAVMYITGAGLYAARIPERFFPGKFDIWFQSHQIFHVLVVAAAFVHFYGVSNLQEFRYGLEGGCTDDTLL
B2: Flag-fused N-terminal-truncated AdipoR1 (residues 89-375) [human] / GST-fused P5 (GLYYF) [human] (parent complex)
chain 1: B1 chain 2
chain 2: GLYYF

Variants of: B1
Assay: GST pulldown; n = 3 technical replicates/group; parent: 1; read off a plot

Row | ratio to parent | Variant
1 | ~0.13 | chain 1 GLYDF [chain 1 Y4D]
2 | ~0.12 | chain 1 GLYAF [chain 1 Y4A]

Variants of: B2
Assay: as above

Row | Variant | ratio to parent
3 | chain 1 EGRWRVIPYDVLPDWLKDNDYLLHGHRPPMPSFRACFKSIFRIHTETGNIWTHLLGFVLFLFLGILTMLRPNMYFMAPLQEKVVFGMFFLGAVLCLSFSWLFHTVYCHSEKVSRTFSKLDYSGIALLIMGSFVPWLYYSFYCSPQPRLIYLSIVCVLGISAIIVAQWDRFATPKHRQTRAGVFLGLGLSGVVPTMHATIAEGFVKATTVGQMGWFFLMAVMYITGAGLYAARIPERFFPGKFDIWFQSHQIFHVLVVAAAFVHFYGVSNLQEFRYGLEGGCTDDTLL [chain 1 F197A] | ~0.57
4 | chain 1 EGRWRVIPYDVLPDWLKDNDYLLHGHRPPMPSFRACFKSIFRIHTETGNIWTHLLGFVLFLFLGILTMLRPNMYFMAPLQEKVVFGMFFLGAVLCLSFSWLFHTVYCHSEKVSRTFSKLDYSGIALLIMGSFVPWLYYSFYCSPQPRLIYLSIVCVLGISAIIVAQWDRFATPKHRQTRAGVFLGLGLSGVVPTMHFTIAEGFVKATTVGQMGWFFLMAVMYITGAGLYAARIPERFFPGKFDIWFQSHQIFHVLVVAAAFVHFYGVSNLQEFAYGLEGGCTDDTLL [chain 1 R274A] | ~0.83

Next, values leading:

Row | ratio to parent | Variant
5 | ~0.3 | chain 1 EGRWRVIPYDVLPDWLKDNDYLLHGHRPPMPSFRACFKSIFRIHTETGNIWTHLLGFVLFLFLGILTMLRPNMYFMAPLQEKVVFGMFFLGAVLCLSFSWLFHTVYCHSEKVSRTFSKLDYSGIALLIMGSFVPWLYYSFYCSPQPRLIYLSIVCVLGISAIIVAQWDRFATPKHRQTRAGVFLGLGLSGVVPTMHETIAEGFVKATTVGQMGWFFLMAVMYITGAGLYAARIPERFFPGKFDIWFQSHQIFHVLVVAAAFVHFYGVSNLQEFRYGLEGGCTDDTLL [chain 1 F197E]
6 | ~0.73 | chain 1 EGRWRVIPYDVLPDWLKDNDYLLHGHRPPMPSFRACFKSIFRIHTETGNIWTHLLGFVLFLFLGILTMLRPNMYFMAPLQEKVVFGMFFLGAVLCLSFSWLFHTVYCHSEKVSRTFSKLDYSGIALLIMGSFVPWLYYSFYCSPQPRLIYLSIVCVLGISAIIVAQWDRFATPKHRQTRAGVFLGLGLSGVVPTMHFTIAEGFVKATTVGQMGWFFLMAVMYITGAGLYAARIPERFFPGKFDIWFQSHQIFHVLVVAAAFVHFYGVSNLQEARYGLEGGCTDDTLL [chain 1 F273A]

Variants of: B2
Assay: as above
Remark: another data set of the same source

Row | ratio to parent | Variant
7 | ~0.45 | chain 1 EGRWRVIPYDVLPDWLKDNDYLLHGHRPPMPSFRACFKSIFRIHTETGNIWTHLLGFVLFLFLGILTMLRPNMYFMAPLQEKVVFGMFFLGAVLCLSFSWLFHTVYCHSEKVSRTFSKLDYSGIALLIMGSFVPWLYYSFYCSPQPRLIYLSIVCVLGISAIIVAQWDRFATPKHRQTRAGVFLGLGLSGVVPTMHETIAAGFVKATTVGQMGWFFLMAVMYITGAGLYAARIPERFFPGKFDIWFQSHQIFHVLVVAAAFVHFYGVSNLQEFRYGLEGGCTDDTLL [chain 1 F197E, chain 1 E201A]
8 | ~0.72 | chain 1 EGRWRVIPYDVLPDWLKDNDYLLHGHRPPMPSFRACFKSIFRIHTETGNIWTHLLGFVLFLFLGILTMLRPNMYFMAPLQEKVVFGMFFLGAVLCLSFSWLFHTVYCHSEKVSRTFSKLDYSGIALLIMGSFVPWLYYSFYCSPQPRLIYLSIVCVLGISAIIVAQWDRFATPKHRQTRAGVFLGLGLSGVVPTMHETIAEGFVKATTVGQMGWFFLMAVMYITGAGLYAARIPERFFPGKFDIWFQSHQIFHVLVVAAAFVHFYGVSNLQEARYGLEGGCTDDTLL [chain 1 F197E, chain 1 F273A]
9 | ~0.75 | chain 1 EGRWRVIPYDVLPDWLKDNDYLLHGHRPPMPSFRACFKSIFRIHTETGNIWTHLLGFVLFLFLGILTMLRPNMYFMAPLQEKVVFGMFFLGAVLCLSFSWLFHTVYCHSEKVSRTFSKLDYSGIALLIMGSFVPWLYYSFYCSPQPRLIYLSIVCVLGISAIIVAQWDRFATPKHRQTRAGVFLGLGLSGVVPTMHATIAEGFVKATTVGQMGWFFLMAVMYITGAGLYAARIPERFFPGKFDIWFQSHQIFHVLVVAAAFVHFYGVSNLQEFAYGLEGGCTDDTLL [chain 1 F197A, chain 1 R274A]

Variants of: B2
Assay: as above
Remark: another data set of the same source

Row | ratio to parent | Variant
10 | ~0.65 | chain 1 EGRWRVIPYDVLPDWLKDNDYLLHGHRPPMPSFRACFKSIFRIHTETGNIWTHLLGFVLFLFLGILTMLRPNMYFMAPLQEKVVFGMFFLGAVLCLSFSWLFHTVYCHSEKVSRTFSKLDYSGIALLIMGSFVPWLYASFYCSPQPRLIYLSIVCVLGISAIIVAQWDRFATPKHRQTRAGVFLGLGLSGVVPTMHFTIAEGFVKATTVGQMGWFFLMAVMYITGAGLYAARIPERFFPGKFDIWFQSHQIFHVLVVAAAFVHFYGVSNLQEFRYGLEGGCTDDTLL [chain 1 Y138A]
11 | ~0.77 | chain 1 EGRWRVIPYDVLPDWLKDNDYLLHGHRPPMPSFRACFKSIFRIHTETGNIWTHLLGFVLFLFLGILTMLRPNMYFMAPLQEKVVFGMFFLGAVLCLSFSWLFHTVYCHSEKVSRTFSKLDYSGIALLIMGSFVPWLAYSFYCSPQPRLIYLSIVCVLGISAIIVAQWDRFATPKHRQTRAGVFLGLGLSGVVPTMHFTIAEGFVKATTVGQMGWFFLMAVMYITGAGLYAARIPERFFPGKFDIWFQSHQIFHVLVVAAAFVHFYGVSNLQEFRYGLEGGCTDDTLL [chain 1 Y137A]
12 | ~1 | chain 1 EGRWRVIPYDVLPDWLKDNDYLLHGHRPPMPSFRACFKSIFRIHTETGNIWTHLLGFVLFLFLGILTMLRPNMYFMAPLQEKVVFGMFFLGAVLCLSFSWLFHTVYCHSEKVSRTFSKLDYSGIALLIMGSFVPWLYYSFACSPQPRLIYLSIVCVLGISAIIVAQWDRFATPKHRQTRAGVFLGLGLSGVVPTMHFTIAEGFVKATTVGQMGWFFLMAVMYITGAGLYAARIPERFFPGKFDIWFQSHQIFHVLVVAAAFVHFYGVSNLQEFRYGLEGGCTDDTLL [chain 1 Y141A]
